Assay results reported in paper PMC9822992, “Conformational plasticity of NaK2K and TREK2 potassium channel selectivity filters” (Nature Communications, 2023).
Residue numbers refer to the chain shown, from its start. In names and notes the source's numbering stands.

B1: monomeric NaK Δ19 T73C (with F92A) (other)
chain: KDKEFQVLFVLTILTLISGTIFYSTVEGLRPIDALYFSVVTLTTVGDGNFSPQCDFGKIFTILYIFIGIGLVAGFIHKLAVNVQLPSILSNRKKE
notes: NaK channel from Bacillus cereus, Δ19 construct, monomeric; In the cross-linking experiment T73C was reacted with bis-maleimide PEG (Bis-Mal-dPEG3, 3 nm, or Bis-Mal-dPEG11, 6 nm); also called NaK T73C; not shown: His8, C-terminal, kept
B2: monomeric NaK2K Δ19 T73C (with F92A) (other)
chain: B1 chain with D47Y, N49D
notes: NaK channel from Bacillus cereus, Δ19 construct, NaK2K mutant (TVGDGN changed to TVGYGD), monomeric; positions 63-68 are worked out from the printed Asn68; Channels 'formed as tetramers of monomeric, not tandem dimeric, constructs'; In the cross-linking experiment T73C was reacted with bis-maleimide PEG (3 nm or 6 nm); also called NaK2K T73C; not shown: His8, C-terminal, kept
B3: tandem dimeric NaK Δ19 T73C (other)
chain: KDKEFQVLFVLTILTLISGTIFYSTVEGLRPIDALYFSVVTLTTVGDGNFSPQCDFGKIFTILYIFIGIGLVFGFIHKLAVNVQLPSILSNRKKEGGGSGGGSKDKEFQVLFVLTILTLISGTIFYSTVEGLRPIDALYFSVVTLTTVGDGNFSPQTDFGKIFTILYIFIGIGLVFGFIHKLAVNVQLPSILSNRKKE
modifications: Alexa Fluor 555 or Alexa Fluor 647 c2 maleimide on T73C
notes: NaK (Na+- and K+-conducting) channel from Bacillus cereus, Δ19 construct, first subunit (S1) of the tandem, carries T73C; linker between the two copies; NaK channel from Bacillus cereus, Δ19 construct, second subunit of the tandem, without cysteine; pET28a; Two tandem dimers form the tetrameric channel; whether a His8 also follows the first copy inside the tandem is not clear; also called NaK …
B4: tandem dimeric NaK2K Δ19 T73C (other)
chain: B3 chain with D47Y, N49D, D150Y, N152D
modifications: Alexa Fluor 555 or Alexa Fluor 647 c2 maleimide on T73C
notes: NaK channel from Bacillus cereus, Δ19 construct, NaK2K mutant (selectivity filter TVGDGN changed to TVGYGD), first subunit (S1) of the tandem, carries T73C; positions 63-68 are worked out from the printed Asn68; linker between the two copies; NaK channel from Bacillus cereus, Δ19 construct, NaK2K mutant (TVGDGN changed to TVGYGD), second subunit of the tandem, without cysteine; pET28a; Two tandem …

Columns and labels:
[1] = target: cysteine-less TREK2 S105C (Gly67 to Glu340); experiment: SEC; Superdex-200 10/300, 20 mM Tris, 150 mM KCl, 2 mM DDM, pH 8, 4 °C; oligomer fractions of labelled TREK2 collected
[2] = target: the molecule itself; experiment: SEC; Superdex-200 10/300, 20 mM Hepes, 150 mM KCl, 5 mM DM, pH 7.5, 4 °C; tetrameric fractions pooled (again after fluorophore labelling)

Molecule | stoichiometry N [2] | binding result [2] | other results
cysteine-less TREK2 S105C (Gly67 to Glu340) | – | – | stoichiometry N [1]: 2
B1 | 4 | – | –
B2 | 4 | – | –
B3 | – | binds | –
B4 | – | binds | –
